From US20160244525A1 (Genentech, published 2016)
Substitutions are numbered along the chain they refer to. One block for each binder: values may come before it.

How the values were obtained:
hKLB = biological target: T1, hKLB; test: FACS on 293 cells expressing hKLB, antibody at 0.8 ug/ml
T1 construct: also called human beta-Klotho on 293 cells

FGFR1-IIIb [1] = biological target: T2, FGFR1-IIIb (human, UniProt P11362-19 22-376, limits assumed); test: SPR
T2 construct: Soluble FGFR antigen in SPR
T2 sequence (looked up): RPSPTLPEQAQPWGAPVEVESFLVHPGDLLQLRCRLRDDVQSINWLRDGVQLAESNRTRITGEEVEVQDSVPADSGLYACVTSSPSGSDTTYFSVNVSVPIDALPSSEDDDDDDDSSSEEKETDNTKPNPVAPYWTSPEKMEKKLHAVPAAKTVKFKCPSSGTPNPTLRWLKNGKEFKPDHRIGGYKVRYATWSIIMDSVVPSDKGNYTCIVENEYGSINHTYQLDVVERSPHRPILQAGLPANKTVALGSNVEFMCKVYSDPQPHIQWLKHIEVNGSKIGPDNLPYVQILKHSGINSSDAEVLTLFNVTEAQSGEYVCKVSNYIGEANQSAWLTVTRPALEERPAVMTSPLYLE
Protocol: (§1) A saturated amount of anti-human Fc monoclonal antibody was immobilized onto a CM5 biosensor chip by following the product instructions. […] FGFR antigens of various concentrations were injected at a flow rate 30 μL/min. After each binding cycle, flow cells were regenerated using 3M MgCl₂. Kinetic analyses were performed using the T100 evaluation software to obtain the kinetic and affinity constants.
(§2) 1.3 variants were determined by capturing FGFR4-Fc and flowing the antibody Fab fragments (Table 12).

FGFR3-IIIc [2] = biological target: T3, FGFR3-IIIc (human, UniProt P22607 23-375, limits assumed); test: SPR
T3 construct: also called human FGFR3-IIIc
T3 sequence: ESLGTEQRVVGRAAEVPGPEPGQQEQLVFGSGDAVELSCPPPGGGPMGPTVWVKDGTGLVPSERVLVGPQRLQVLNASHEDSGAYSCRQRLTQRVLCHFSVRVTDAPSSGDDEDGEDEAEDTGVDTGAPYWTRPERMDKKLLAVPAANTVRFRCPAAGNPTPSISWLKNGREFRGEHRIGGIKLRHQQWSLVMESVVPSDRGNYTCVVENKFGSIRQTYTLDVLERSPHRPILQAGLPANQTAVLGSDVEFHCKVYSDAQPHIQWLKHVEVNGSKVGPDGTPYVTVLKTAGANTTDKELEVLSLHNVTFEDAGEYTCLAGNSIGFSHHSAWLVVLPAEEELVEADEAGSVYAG
Protocol: as §1, §2

FGFR2-IIIb (D2D3) = biological target: T4, FGFR2-IIIb (D2D3) (human); test: SPR (Biacore)
T4 construct: also called human FGFR2-IIIb ECD (residue 140-369)
T4 chain: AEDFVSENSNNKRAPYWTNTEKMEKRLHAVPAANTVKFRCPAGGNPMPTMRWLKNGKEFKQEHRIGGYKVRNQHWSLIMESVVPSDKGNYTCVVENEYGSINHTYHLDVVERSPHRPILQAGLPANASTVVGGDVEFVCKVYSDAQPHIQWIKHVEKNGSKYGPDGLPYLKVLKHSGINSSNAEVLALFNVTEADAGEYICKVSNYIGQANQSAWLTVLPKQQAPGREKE

FGFR3-IIIc [3] = biological target: T3, FGFR3-IIIc; test: SPR (Biacore T100), IgG captured by anti-human Fc, FGFR flowed
Protocol: as §1

FGFR4 = biological target: T5, FGFR4 (human, UniProt P22455 22-369, limits assumed); test: blocking ELISA: FGFR4-Fc captured on an anti-human Fc plate, antibody titrated, FGF-19 (with heparin) is the ligand, bound FGF-19 read as OD450
T5 construct: also called human FGFR4; FGFR4-His
T5 sequence (looked up): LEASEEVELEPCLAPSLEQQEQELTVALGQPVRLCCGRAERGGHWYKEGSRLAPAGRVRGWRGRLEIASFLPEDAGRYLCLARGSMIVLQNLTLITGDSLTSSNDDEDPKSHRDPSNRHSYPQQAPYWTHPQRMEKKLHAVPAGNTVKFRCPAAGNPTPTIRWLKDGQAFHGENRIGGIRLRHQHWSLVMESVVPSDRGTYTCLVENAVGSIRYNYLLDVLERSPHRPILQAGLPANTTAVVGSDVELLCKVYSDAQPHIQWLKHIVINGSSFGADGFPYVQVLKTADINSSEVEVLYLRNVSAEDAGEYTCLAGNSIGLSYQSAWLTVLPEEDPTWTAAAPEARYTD
Protocol: (§3) The plate was washed 5 times before being added with the antibody and FGF ligand mixtures, which was prepared as 49 μL 100 ng/mL FGF ligand, 1 μL 25 mg/mL Heparin (Sigma-Aldrich) and 50 μL antibody dilutions. After shaking at RT for 2 h, the plate was washed 5 times. Bound ligand was detected by subsequent incubations at RT with 0.5 μg/mL biotinylated anti-FGF antibodies (R&D Biosystems) for 0.5 h, 1:2,500-diluted Streptavidin-HRP (Invitrogen) for 0.5 h and the TMB substrate until enough color development.

FGFR2-IIIc [4] = biological target: T6, FGFR2-IIIc (human, UniProt P21802 22-377); test: blocking ELISA: FGFR2-IIIc-Fc captured on an anti-human Fc plate, antibody titrated, FGF-1 (with heparin) is the ligand, bound FGF-1 read as OD450
T6 construct: also called human FGFR2-IIIc; FGFR2-IIIc-His
Protocol: as §3

FGFR3-IIIc [5] = biological target: T3, FGFR3-IIIc; test: blocking ELISA: FGFR3-IIIc-Fc captured on an anti-human Fc plate, antibody titrated, FGF-1 (with heparin) is the blocked ligand, bound FGF-1 read as OD450
Protocol: as §3

FGFR3-IIIc [6] = biological target: T3, FGFR3-IIIc; test: surface plasmon resonance (Biacore)
FGFR2-IIIc [7] = biological target: T6, FGFR2-IIIc; test: SPR
Protocol: as §1, §2

FGFR1-IIIb [8] = biological target: T2, FGFR1-IIIb; test: SPR (Biacore T100), IgG captured by anti-human Fc, FGFR flowed
Protocol: as §1

FGFR2-IIIc [9] = biological target: T6, FGFR2-IIIc; test: as above
Protocol: as §1

FGFR2-IIIc [10] = biological target: T6, FGFR2-IIIc; test: blocking ELISA: FGFR2-IIIc-Fc captured on an anti-human Fc plate, antibody titrated, FGF-1 (with heparin) is the blocked ligand, bound FGF-1 read as OD450
Protocol: as §3

T6 sequence (P21802 22-377 limits assumed): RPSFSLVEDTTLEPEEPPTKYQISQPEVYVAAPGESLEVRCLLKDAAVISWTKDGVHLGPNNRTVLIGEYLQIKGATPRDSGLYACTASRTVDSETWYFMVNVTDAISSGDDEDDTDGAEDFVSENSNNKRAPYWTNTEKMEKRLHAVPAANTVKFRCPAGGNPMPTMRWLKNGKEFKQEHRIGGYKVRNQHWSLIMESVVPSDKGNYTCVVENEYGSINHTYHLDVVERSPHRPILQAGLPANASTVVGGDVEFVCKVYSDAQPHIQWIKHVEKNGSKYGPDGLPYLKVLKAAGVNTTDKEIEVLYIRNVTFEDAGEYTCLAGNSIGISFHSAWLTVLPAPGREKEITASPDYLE
T1 sequence (chain, as listed by the source limits assumed): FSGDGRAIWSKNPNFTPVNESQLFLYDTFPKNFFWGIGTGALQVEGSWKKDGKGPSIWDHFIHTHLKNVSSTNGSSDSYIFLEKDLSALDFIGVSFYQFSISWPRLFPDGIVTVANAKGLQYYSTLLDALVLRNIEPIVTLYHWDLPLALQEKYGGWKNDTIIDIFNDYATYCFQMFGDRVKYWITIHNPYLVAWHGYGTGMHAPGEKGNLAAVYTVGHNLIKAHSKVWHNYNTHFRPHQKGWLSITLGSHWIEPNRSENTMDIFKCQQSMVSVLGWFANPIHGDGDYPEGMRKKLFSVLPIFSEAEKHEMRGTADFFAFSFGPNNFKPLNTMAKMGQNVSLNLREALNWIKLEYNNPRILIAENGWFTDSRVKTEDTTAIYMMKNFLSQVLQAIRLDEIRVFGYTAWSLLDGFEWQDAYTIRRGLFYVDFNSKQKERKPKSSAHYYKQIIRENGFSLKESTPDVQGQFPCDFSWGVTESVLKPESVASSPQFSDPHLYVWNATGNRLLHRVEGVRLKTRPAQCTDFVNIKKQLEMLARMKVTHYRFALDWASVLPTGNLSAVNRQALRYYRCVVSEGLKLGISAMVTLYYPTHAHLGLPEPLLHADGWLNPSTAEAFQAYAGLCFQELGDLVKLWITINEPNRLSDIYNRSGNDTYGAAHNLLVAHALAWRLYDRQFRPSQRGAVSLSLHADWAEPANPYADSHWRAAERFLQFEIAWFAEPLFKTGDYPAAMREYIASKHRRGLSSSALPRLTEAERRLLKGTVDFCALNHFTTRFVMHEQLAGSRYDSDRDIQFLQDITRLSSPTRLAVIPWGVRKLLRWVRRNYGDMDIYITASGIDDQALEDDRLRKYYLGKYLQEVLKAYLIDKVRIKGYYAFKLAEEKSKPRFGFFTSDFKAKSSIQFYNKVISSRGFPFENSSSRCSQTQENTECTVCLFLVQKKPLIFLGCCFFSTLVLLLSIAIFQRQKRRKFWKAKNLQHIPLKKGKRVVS

B1: 5F8 (antibody, V domains shown)
VH: EVQLQQSGTELVRPGASVKLSCTSSDFNIKDTYIHWVKQRPEQGLDWLGRIDPANGNTKYDPKFQGKAAMTSDTSSNTAYLRLSSLTSEDTAVYYCASSGNYGAMDYWGQGTSVTVSS
VL: ESVLTQSPALMSASLGEKVTMTCRASSSVNHMYWYQQKSDASPKLWIYYTSTLAPGVPARFSGSGSGNSYSLTISSMEGEDAATYYCQQFTISPSMYTFGGGTKLEIK
binding result (hKLB): binds

B2: 14C6 (antibody, V domains shown)
VH: QIQLQQSGAELMKPGASVRMSCKASGYTFSSYWIEWVKQRSGHGLEWIGEIFPGGGSTIYNENFRDKATFTADTSSNTAYMQLSSLTSEDSAVYFCARRGYYDAAWFDYWGQGTLVTVSA
VL: QIVLTQSPAIMSASPGERVTLTCSASSSLSSSYLYWYQQKPGSSPKLWIYGASNLASGVPGRFSGSGSGTSYSLTISSMEAEDAASYFCHQWSSYPLTFGSGTKLELK
binding result (hKLB): binds

B6: R3Mab (antibody, human IgG1, kappa, V domains shown)
VH: EVQLVESGGGLVQPGGSLRLSCAASGFTFTSTGISWVRQAPGKGLEWVGRIYPTNGSTNYADSVKGRFTISADTSKNTAYLQMNSLRAEDTAVYYCARTYGIYDLYVDYTEYVMDYWGQGTLVTVSS
VL: DIQMTQSPSSLSASVGDRVTITCRASQDVDTSLAWYKQKPGKAPKLLIYSASFLYSGVPSRFSGSGSGTDFTLTISSLQPEDFATYYCQQSTGHPQTFGQGTKVEIKR
notes: IgG in SPR; also called parental anti-FGFR3 antibody
binding result (FGFR1-IIIb [1]): no binding
Kd (FGFR3-IIIc [2]): 0.61 nM
binding result (FGFR2-IIIb (D2D3)): no binding (tested: 200 nM)
Kd (FGFR3-IIIc [3]): 0.61 nM
binding result (FGFR4): no binding (tested: 500 nM)
binding result (FGFR2-IIIc [4]): no binding (tested: 128 nM)
IC50 (read off the curve) (FGFR3-IIIc [5]): 2 to 3 nM

B7: 2B1.1.12 (antibody, V domains shown)
VH: B6 VH with T28P, I51Y, Y52W, P53A, T54W, N55D, L105T, V107D, D108M
VL: B6 VL
Kd (FGFR3-IIIc [6]): 0.142 nM

B8: 2B.1.3.12 (antibody, human IgG1, kappa, V domains shown)
VH: B6 VH with T28P, I51T, Y52H, P53L, T54G, N55D, L105T, V107D, D108M
VL: B6 VL
notes: Full IgG1/kappa chains; also called Mab 2B.1.3.12
Kd (FGFR2-IIIc [7]): 6.1 nM
Kd (FGFR3-IIIc [2]): 0.72 nM
Kd (FGFR3-IIIc [6]): 0.28 nM
binding result (FGFR1-IIIb [8]): no binding (tested: 500 nM)
Kd (FGFR2-IIIc [9]): 6.1 nM
Kd (FGFR3-IIIc [3]): 0.72 nM
IC50 (read off the curve) (FGFR3-IIIc [5]): 2 to 3 nM

B9: 2B1.1.8 (antibody, V domains shown)
VH: B6 VH with T28P, T32L, I51Y, Y52W, P53A, T54W, N55D, L105I, V107E, D108K
VL: B6 VL
Kd (FGFR3-IIIc [6]): 0.112 nM

B10: 2B1.1.10 (antibody, V domains shown)
VH: B6 VH with T28P, T32Q, I51Y, Y52W, P53A, T54W, N55D, L105T, V107D, D108K
VL: B6 VL
Kd (FGFR3-IIIc [6]): 0.198 nM

B12: 2B1.1.4 (antibody, V domains shown)
VH: B6 VH with I51Y, Y52W, P53A, T54W, N55D, L105I, V107G, D108G
VL: B6 VL
Kd (FGFR3-IIIc [6]): 0.153 nM

B14: 2B.1.1.6 (antibody, human IgG1, kappa, V domains shown)
VH: B6 VH with I51Y, Y52W, P53A, T54W, N55D, L105T, V107D, D108E
VL: B6 VL
notes: Full IgG1/kappa chains
Kd (FGFR3-IIIc [6]): 0.0796 nM

B15: 2B1.1.2 (antibody, V domains shown)
VH: B6 VH with I51Y, Y52W, P53A, T54W, N55D, L105T, V107D, D108N
VL: B6 VL
Kd (FGFR3-IIIc [6]): 0.0908 nM

Next, values leading:

binding result (hKLB): binds
B3: 8H7 (antibody, V domains shown)
VH: QVQLQQPGAEIVKPGASVRLSCKASGYSFTSYWIHWVKQRPGQGLEWIGEIDPSVSNSNYNQKFKGKATLTADKSSSTAYMQLSGLTSEDSAVYFCVRLGVMVYGSSPFWFAYWGQGTLVTVSA
VL: DIVMTQSQKFMSTSVGDRVSITCKASQFVSDAVAWYQQKPGQSPKLLICSASYRYTGVPDRFTGSGSGTDFTFTISSVRTEDLAVYYCQQHYIVPYTFGGGTTLEIE

binding result (hKLB): binds
B4: 11D4 (antibody, V domains shown)
VH: QVQVKESGPGLVAPSQSLSITCTVSGFSLTNYGVSWIRQPPGKGLEWLGVIWGDGSINYHSALISRLTITKDNSKSQVFLKLNSLEADDTATYYCAKTHDWFDYWGQGTLVTVSA
VL: DIQMTQTPSSLSASLGDRVTINCRASQDISNYFNWYQQKPNGTIKLLIYYTSRLQSGVPSRFSGSGSGTDYSLTISNLEQEDKATYFCHQVRTLPWTFGGGTKLEIK

binding result (hKLB): binds
B5: 24A1 (antibody, V domains shown)
VH: QVQLKQSGAELVRPGTSVTLSCKASGYTFTDYEMHWMKQTPVYGLEWIGAIWPENADSVYNQKFKGKVTLTADKSSSTAYMDLRSLTSEDSAVYYCTREGGNYWGQGTTLTVSS
VL: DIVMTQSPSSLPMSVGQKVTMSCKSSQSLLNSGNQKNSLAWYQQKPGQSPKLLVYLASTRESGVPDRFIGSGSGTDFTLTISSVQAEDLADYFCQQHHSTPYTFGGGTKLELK

binding result (FGFR1-IIIb [1]): no binding
Kd (FGFR2-IIIc [7]): 2 nM
Kd (FGFR3-IIIc [2]): 0.07 nM
Kd (FGFR2-IIIb (D2D3)): 0.71 nM
Kd (FGFR3-IIIc [6]): 0.0834 nM
Kd (FGFR2-IIIc [9]): 2 nM
Kd (FGFR3-IIIc [3]): 0.07 nM
IC50 (read off the curve) (FGFR2-IIIc [10]): ~5 nM
IC50 (read off the curve) (FGFR3-IIIc [5]): 2 to 3 nM
B11: 2B.1.3 (antibody, human IgG1, kappa, V domains shown)
VH: B6 VH with I51T, Y52H, P53L, T54G, N55D
VL: B6 VL
notes: Full IgG1/kappa chains; also called Mab 2B.1.3

binding result (FGFR1-IIIb [8]): no binding (tested: 500 nM)
Kd (FGFR2-IIIc [9]): 1.1 nM
Kd (FGFR3-IIIc [3]): 0.25 nM
IC50 (read off the curve) (FGFR3-IIIc [5]): 2 to 3 nM
B13: 2B.1.3.10 (antibody, human IgG1, kappa, V domains shown)
VH: B6 VH with T28P, T32Q, I51T, Y52H, P53L, T54G, N55D, L105T, V107D, D108K
VL: B6 VL
notes: Full IgG1/kappa chains; also called Mab 2B.1.3.10

binding result (hKLB): binds
B16: 25F7 (antibody, V domains shown)
VH: EVQLQQSGAELLKPGASVRLSCTASGFNIQDTFTHWVRQRPEQGLEWIGRIDPSNGNTKYDPKFQGKAKILADTSSNTAYLQLIGLTSEDTAVYYCASRALGNGYAMDYWGQGTSVTVSS
VL: DIQMTQSSSYLSVSLGGRVTITCKASDHINNWLAWYQQKPGNAPRLLISGASNLETGIPSRFSGSGSGKDYTLTITSLQTEDVATYYCQQYWNTPFTFGSGTKLEIK
